Experimental data published in PMC5656576.

B1: 165 nt model vRNA (ssRNA)
RNA: AGUAGAAACAAGGUCGUUUUUAAACUAUUCGACACUAAUUGAUGGCCAUCCGAAUUUAUGGUCCACGGUGGUUUUUGUGAGUAUCUCGCGGGUGCGAGACUGCGACAUUAGAUUUCUUAGUUCUUUUAUUCUUUCCAUAUUGAAUAUAAUUGACCUGCUUUCGCU
B2: 53 nt model vRNA (ssRNA)
RNA: AGUAGAAACAAGGGUGUUUUUUCAUAUCAUUUAAACUUCACCCUGCUUUUGCU

Columns and labels:
[1] = biological target: NP in preformed NP-UAP56 complex (Influenza A virus, UniProt P03466 1-498); assay: EMSA; conditions: protein: recombinant; tags: C-terminal His tag (encoded in primer); chain copies: 6; label: 32P; single strand; partly complementary ends
Chain of NP in preformed NP-UAP56 complex (P03466 whole entry, one chain of several): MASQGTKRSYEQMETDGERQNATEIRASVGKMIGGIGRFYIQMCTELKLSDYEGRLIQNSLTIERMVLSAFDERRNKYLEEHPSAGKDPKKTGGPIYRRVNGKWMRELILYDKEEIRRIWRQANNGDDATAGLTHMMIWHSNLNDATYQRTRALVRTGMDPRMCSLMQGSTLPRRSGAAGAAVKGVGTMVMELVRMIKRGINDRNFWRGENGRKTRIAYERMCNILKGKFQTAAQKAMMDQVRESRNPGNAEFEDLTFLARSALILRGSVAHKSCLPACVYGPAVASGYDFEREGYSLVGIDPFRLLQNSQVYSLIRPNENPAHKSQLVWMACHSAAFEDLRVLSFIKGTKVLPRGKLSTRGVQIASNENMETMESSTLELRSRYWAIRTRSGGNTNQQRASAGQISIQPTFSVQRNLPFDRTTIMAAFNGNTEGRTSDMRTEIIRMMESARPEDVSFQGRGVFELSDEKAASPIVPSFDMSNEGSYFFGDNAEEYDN

[2] = biological target: NP (nucleoprotein), His-tagged (Influenza A virus, UniProt P03466 1-498); assay: EMSA; conditions: protein: recombinant; tags: C-terminal His tag (encoded in primer); label: 32P; single strand; partly complementary ends
Chain of NP (nucleoprotein), His-tagged (P03466 whole entry): as the sequence (P03466 whole entry, one chain of several) above

[3] = biological target: T1, UAP56 (UniProt Q13838 1-428); assay: EMSA; UAP56 alone, 0.8-7.2 pmol; conditions: protein: recombinant; tags: GST tag removed with PreScission protease; chain copies: 2; label: 32P; single strand; partly complementary ends
T1 sequence (Q13838 whole entry): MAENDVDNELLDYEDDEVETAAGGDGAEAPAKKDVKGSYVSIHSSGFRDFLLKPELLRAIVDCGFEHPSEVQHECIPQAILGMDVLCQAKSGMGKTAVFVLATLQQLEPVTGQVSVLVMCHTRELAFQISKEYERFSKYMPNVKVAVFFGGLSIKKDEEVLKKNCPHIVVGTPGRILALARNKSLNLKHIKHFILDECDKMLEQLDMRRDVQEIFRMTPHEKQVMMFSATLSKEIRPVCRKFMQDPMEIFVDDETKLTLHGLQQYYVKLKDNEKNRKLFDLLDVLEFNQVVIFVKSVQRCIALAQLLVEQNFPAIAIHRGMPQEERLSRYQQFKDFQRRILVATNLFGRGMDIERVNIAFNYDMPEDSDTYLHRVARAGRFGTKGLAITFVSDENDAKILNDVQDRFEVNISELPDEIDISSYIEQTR

[4] = biological target: T1, UAP56; assay: EMSA; conditions: protein: recombinant; tags: GST tag removed with PreScission protease; chain copies: 2; label: 32P; single strand; partly complementary ends

Binder	binding result [1]	binding result [2]	binding result [3]	binding result [4]
B1	binds	binds	no binding	
B2	binds	binds		no binding
